In the assay the target is Candida parapsilosis ATCC 7330 imine reductase CpIM1 (Candida parapsilosis ATCC 7330). The experiment in a line: SEC. In general terms: In gel filtration, larger molecules generally elute earlier.

One may read the stoichiometry N as the number of molecules, sites or subunits per partner or assembly. As to “Candida parapsilosis ATCC 7330 imine reductase CpIM1 (enzyme)”, the stoichiometry N turned out to be 2.

Values taken from paper PMC8446579.
